Measured values as given in the domain aggregation screens of Martell et al. (2025).

Experiment: soluble fraction after stress (log2 fold change); higher = more stays soluble; pooled small domains, quantitative proteomics
Conditions: stress: 75 degC
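Also: 20 min heating vs room temperature control held 20 min.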

| Sequence | soluble fraction (log2) |
| --- | --- |
| HMSSVEVWINGKSSGLTSDNRAQILQQLPAESIERIEVIDNPSAKFSAEGSAGIINIVLKKD | 0.195 |
| HMSSVRDNGDLELVPGDRIRHDDYGEGRVTAVTGVGSKRIAHAVFDSVGERKLLIKLSPIEKI | -0.0574 |
| HMSSWMTKDGKIKPISKWAGVPMTSQQQADYAAGKVVELTNIPDKQGQLNTVYLKFNPEKQRPTTSLNDPR | -0.00849 |
| HMSSYETVTLNGQRYFKYKVKSGEGLYAISRMFSTPIAEIIRHNPSSNAGLKNGQELLIPVN | -0.356 |
| HMSSYMQMQLERLESLLQKNDLTDSDKYDIRQLVEDLDKVPESVSPNLVGAYMTIKNRYASVLKTVL | 0.0189 |
| HMSTANISIEQAKEIALNHANLTSNQVIFSRTELDYDNGIQKYEVEFYYNNREYSYEINANTGDILGYEQ | -0.722 |
| HMSTANIVVPDVKGKTFEEAKKAIEAEGLTAKAEGDESGVVQKTSPSYGVSVESGSEVTLTLVKSDD | 0.494 |
| HMSTDNINYKNILIASLLIHAAKIDENYTENEKNIIKKALIELDEIDSKKADEIMILAEKKE | -0.265 |
| HMSTGYEMVREVANQGSFSKAANSLGVSGPAVSKQVKSLEERLGLVLFHRTTRAVSLTQAGRQLVDVLN | 0.114 |
| HMSTIKEKIIQYLDFKGISKYDFYQKTGVSNGVLSQKSGMSEDNIMRFLSYYDDINTDWLFYGKGEMIKT | -2.06 |
| HMSTKLLEVNIFDDSKWVNKTIMDSDIPEDILIVMIKRGDEVIVPKGSTIINKGDILVLSANNFDNLLN | -2.45 |
| HMSTMTEQEAFGLWERINDFIARTGNEPNRNSNDAHEVRMAEALNFIRIKVAEQRNSQSNSEAQNN | -0.263 |
| HMSTNDIFISGDKLVLKNTTGQMDVFDMAGRKVLSSTNNVSEMNVSSLPKGVYVVSASIGGSKMKAKVYK | 0.536 |
| HMSTQGRRIEILRHLTQTKKKADVNFVELGRTFGTSDTTIRKDLDWLIKNEYWENHGEWKPTQAGLNMI | 0.0518 |
| HMSTRKAFVNGDGVRLRSGPGTNHSIRASLTKGQTVFVTGTKDGWASVSVQGGASGWVSADLLKYE | 0.59 |
| HMSTRYVRTPAGQAEIQARVFKLSRPVRNLLLVINDSRSIDDWLVQVHGITADDVAMLRAEGLIAEVS | -3.06 |
| HMSTSEQVYTTDKVNVRREADTSSEKLGSLEKGTAISRTGTEGEWSVVNYGGVTGYIKTEFLTTEQPQ | 0.63 |
| HMSTSFQVQVSVLDLRIRKEPTVKGQEVGKISKGIHTITETRSADGYTWGKLESGQGWIALEFTTKLD | -3.72 |
| HMSTSLIEFTIDRNNSIANKMIMDANIPEDILVVMIKRNGDVFVPNGSTKILPGDILVLSGNKLKY | -1.69 |
| HMSTTDGIERFLASGAVKGIGRTMAARIVEHFGSRTLTVMESEPERLTEVAGIGRKKAESIAASYAELS | -0.247 |
| HMSTTYAPYLLGETEQEAIRMARNAGLDPQVVRQSDKSEAGTVILQSHDFGFAMKRGAVILITVSSGPLQ | -2.13 |
| HMSTVTEVHYIAFKNGRIVDIKAALTGSAVTATSIKEQPKIENYNYTTSEVRDGILYHTYAPVA | -2.37 |
| HMSVADNALSRQAIESRIALFIQNEDPNHPRSDADIQKELAQAGVVISRRAITKYRNHLHIPSASLRRR | -1.16 |
| HMSVAPISYSQFESYLEQGKVASVAVGQDTIAGRFTAPVDGKSQFVTTIVNPQILDRIDKSGVEITGV | 0.144 |
| HMSVAVKAPLQGTVMKVNVKPGDTVTKGAPVAVIEALKMENDVPAPQDGVVASVDVKSGDSVKTDQVLLTL | 0.563 |
| HMSVDAMDEANERKMAKTFNMIVLGGLLKIRPIVSIESVIKALRKTLPERHHHLIPMNEEAIHIGMDII | 0.0832 |

| Sequence | soluble fraction (log2) |
| --- | --- |
| HMSVDDEQLLKIIDDIFQQNPQAVTDAKTDSNAIHFLIGQVMKETKGHADHAISKEIIEKKLS | 0.0407 |
| HMSVDEVEALYLKIAEDRLEGKLPDKVSESDLMRRYGLTKAQLGAILQRIVHEGWIERTPGHGWRFLPIL | -0.538 |
| HMSVFMIIVLKQHAPQEFVDMLMSSIKAKGVQIDVSKGARKTILGLVGNTSVIDREQIAGYEYVDKVIRV | -1.94 |
| HMSVFTDIYHQADHETKLMLIHEIKIVGDEKEFRLLKSIIDSTSNDLSKEANDALNAIKIRLALSK | -2.34 |
| HMSVFTPLTRSELETFLAPYELGRLLDFQGIAAGSENTNYFISLEKGEYVLTLVERGPVAEMPFFIELLD | -1.33 |
| HMSVGDLLENLIRETRAQFSAPPESLGVAEKRRFVALLSQKGGFLLKGAVSRAASVLGVSEQTVYRYLKDS | -1.83 |
| HMSVGDLPPEAREIWKLLDGRELSLDLLAEETGRETGALLSTLMMLEMKLLVEHGSDMVYRRIPRR | -2.85 |
| HMSVHSAELKKLKAHLLGIIGRELETQPSTENREEMVRQILHQSYESLRLNLPMQLKEELFNEILAEVL | -0.459 |
| HMSVLEHVSGNVRRLRLQAGLSQEALARAASVSRRMLVGIESGDVNVSLSTLDRIAAALGVLFPDLVQAP | -2.53 |
| HMSVLPAREQVAAILRQAILLRKFKEGQDLTLKDAAELVGSSITPVREAFQILENEGLIELRPNKGAVVL | -0.627 |
| HMSVPEDLYFRELEVEGNKVRISGIASTNNRVSALMRNFDQSEWFRDPSLIKVESKSPGVNEFEIVMTRI | 0.125 |
| HMSVPNVVGRDQVEASSLLESAGFKVSVKQSYSDSVEQGKVISQSPSGSTTVSPGSTVTITVSQ | 0.395 |
| HMSVPRPSAVEVTSLVTGVRDLLPHLGEGYVERVLVEFGFKVDETINALLEGNLPKHLQDLDPSLTKEI | -1.24 |
| HMSVPVDEVLAALTQKLTDLRTQAMAAKDFSAVDALKAALTEAGVEVRMSKTGVELIAGPRVDAKKLGTL | 0.395 |
| HMSVRPMVEILRVVGSPSPVWVTWARNRAAWLYETGIRPQQRLRMADGTEVLIRLVGEFAHILVVGG | 0.092 |
| HMSVSATQMDAFVRQLRARLSSADGLDDAARLVRQDLEPFLGRFSDETERDFAAAIEQVRGSIRPVEI | -0.139 |
| HMSVSEAELAEKYHADDLEALKSGKLHEFQENLIDRNGKKYTVQTMKDILTLSDGTRLLLGIGLD | 0.131 |
| HMSVTDDQLRVFTNKSGTKIKAKIVEVSDDKVKLIRDDNKKFIVPINSLSEEDQDYLRDWVSNEAVEP | -0.118 |
| HMSVTIDAGGKVYLQESEIADDQLVPRLVAISNNGYDKPIYLRADKTVGYGRVAEVMSLLNAAGFTKLVLV | -0.513 |
| HMSVTRELMLVKVKVTPEQRAGVSAIVDIFRANIIDVGKESMIIELTGNKSKLEAFIDLLDGYEILELART | -1.46 |
| HMSVTVPDVKRMQAEDAKALLSRYRLRSEVIDSVYVDNIPRGAVVEQIPRENSSVKENRIVFLTINSN | -0.569 |
| HMSVTYRYSYVYNGNTYSDGWSVRRAIENNENKRFGPEPSDLDHEAQKQARVTFWAEHGVEYKEQEVV | -1.24 |
| HMSVYIGVDQAKSIAAEHAGLSNSAVTFSKAKLENDDGMTVYEVEFFYQGTEYDYKIDASTGSILEYDLDR | -1.64 |
| HMSWEDSLLKQAREIIDMYPQKRSAVGPLLHLAQSKDGYISDDSISVISKLVGITEVQLKSVSTFYSMYK | -1.74 |
| HMSWEELLEHLEKAAERGEEVRIAGVTLHDEEDFKRALRWLKEWL | -2.7 |
| HMSYIGEEKAKSIAVSNVKGAGTNNVVKVEFDYDDGRAVYEVKVVYNAMEYEFEIDASNGKILSRDAESIY | -1.45 |

| Sequence | soluble fraction (log2) |
| --- | --- |
| HMSYKFDSLAIILNKLDGKETVNVSSLSDELEVSARTVHRYIGTLQVAGFPIEYDKTKNSYIFSEGYTL | -0.794 |
| HMSYQFKIKNNAAVEVTVSEKNNLLGSTYGDKATVAAGMEKNVTFYTDKPDVVVDTNGNFTITVHDKEIII | 0.0601 |
| HMSYSYIYNYALKVKMDISSTGGKKPYAYYYYDHSYKLAEEILSLSEETESIELQNKYDELKDFYENP | -1.79 |
| HMSYTWHDMYLLAQEYQKEHGNLIIPRNYKGKNGLNLGYWLYKEKLKYRQGKLAPEKIIALEHIGIVWT | -1.25 |
| HMSYYKEMIRLADSIADKAHEGQTDRNGWPYISHPRRVALGARKLVSEMASSTSPDTSLEELKAEVQIVAL | -0.321 |
| HMTAAPEVRVEGLFKGAAVLKIDGQQVMLKKGRSHSSGVTLVDANAHRAIVEIDGQRHELALHMA | -0.0588 |
| HMTADIRFLNSRKFYIYKVEKGETLFSISQKFNIPQEEIIQFNKDINQQGLKAKTKLWVPAYSWL | -3.46 |
| HMTAGTGIAYSEFRSKVQEGQVKDVAIAPDRITGTLSSGQKFSTVPVNDPGLPKMLDDFNVKYSGQA | 0.139 |
| HMTAIWKTITATLTHDIATGKYAPGDRLPTEAQLAARFGVNRHTVRRAISDMNESGLTYSRRGAGVFVAQ | -2.56 |
| HMTALAVGDRVKMDKSATIYGTMRKFAAWVYATKLYVRGIDGNRVVVSTLKSGAITGAVDKKHLTK | -1.61 |
| HMTAMDTQQKKLIIMYHDIHRLRNVEHFTIQRIADHLLLNFRTVKKFLEMTQEEFDKFSENRW | -2.89 |
| HMTANPSTEEIMARVEAIPLPIKRLPPGQIVQAQTVAATVLRSNPGLDLAKAWKLAYATVTGQE | -0.15 |
| HMTANTQVENIRLELQRYMDEHGISQVTVARGIGKTHPVISQFLNNKYPGDVEEVARAIESWLTKQHEKAA | -0.128 |
| HMTAPELGIRQDGNTLVIFWPSSVTGYVLKSADAVDTPPASWTSVTHTTVGDEHRAEITPTGNSRFFRLV | -0.156 |
| HMTAPQAQDYARVPDVLGLDMRESAQALRLDGFEMNAQGDGLAARQSPIGGSYAPEGTQVLVTFEM | 0.053 |
| HMTAQLAAQERTHALDMFMGGYKFSSKPAENGVRAEFEKKNFTLEDGKFLGGDEFMKSLMENDDYKGAFV | 0.406 |
| HMTASKSTVSTPEKVVYHIVFPKETKYSIAKKYGITIEELEKRNPEIIPSLSVGQKLVIKGTAPK | -0.236 |
| HMTATDRQLQLIAYTAARLMAEQGIADFNAAKRKAIQTLGLPNNAKLPGNADVEAQLRAYQRIF | -0.605 |
| HMTATKDLPFSTFITEVEKGNITSVDIKGNQIEGTFSNGAKFKTYSPNYPNLVERLADKGVAISAGPS | 0.0934 |
| HMTAVPADVETVTGFTALDRAGLDTLLARLGLAMDLEDLSFLQAYFRDTERRDPTLTEIRVVDTYWSDH | -1.1 |
| HMTDAEQHEALLFKQVVDGLPQTLRDTFVLSRHAGMTYAEISAHTGTPIKTVESRMAKALELIAQRMR | -1.27 |
| HMTDDALIGKTAQVTVAIKPGSVGQITARVGDERVERLARASADAEIAAGSLVTIKSIAGDSVIVAPE | 0.317 |
| HMTDDPGLSRAENRELQTLLLDRGHDIGQPDGLIGAKTRAAIRAEQSRLNMPVNGRGGQKLLRALRL | 0.262 |
| HMTDFLKTRIDTLGLSTRTLNALSEANVRTIGGIARKKQEDLLEIDGIGEKGIQEIKKMLGEYGITL | -0.303 |
